The target of assay [1] is GoxA precursor protein lacking CTQ (Marinomonas mediterranea). Put plainly: SEC. (In general: In gel filtration, larger molecules generally elute earlier.)
The target of assay [2] is active GoxA with mature CTQ (Marinomonas mediterranea). Put plainly: SEC.

For orientation: stoichiometry N means the number of molecules, sites or subunits per partner or assembly.

In the case of GoxB (enzyme), the stoichiometry N (GoxB per GoxA precursor) in assay [1] stood at 1.

In assay [2], active GoxA with mature CTQ (enzyme) displayed a stoichiometry N of 2.

The values above are taken from article PMC5076370.
